Experiment: soluble on expression in E. coli; label from the status in PepcDB or PDB records
For “SKKVIVIAGTTGVGKSQLSIQLAQKFNGEVINSDSMQVYKDIPIITNKHPLQEREGIPHHVMNHVDWSEEYYSHRFETECMNAIEDIHRRGKIPIVVGGTHYYLQTLFNKRVDTKSSERKLTRKQLDILESTDPDVIYNTLVKCDPDIATKYHPNDYRRVQRMLEIYYKTGKKPSETFNEQKITLKFDTLFLWLYSKPEPLFQRLDDRVDDMLERGALQEIKQLYEYYSQNKFTPEQCENGVWQVIGFKEFLPWLTGKTDDNTVKLEDCIERMKTRTRQYAKRQVKWIKKMLIPDIKGDIYLLDATDLSQWDTNASQRAIAISNDFISNRPIKQERAPKALEELLSKGETTMKKLDDWTHYTCNVCRNADGKNVVAIGEKYWKIHLGSRRHKSNLKRNTRQADFEKWKI”, the “soluble on expression in E. coli” value was “soluble”. For “SKLLDKDGKVFAEVGTERREYIEYKDIPETLKNAILTTEDARFYEHDGIDPIRLGGAVVANVTDGFGAEGASTLSQQIIKMSYLDYTNKTLARKAQEAWLALQLEEKYSKNDILEIYVNKVYMSDRVHGMQTAAEHYFGKNVKDLTLAETALLAGMPQSPNNYNPYDHP”, the “soluble on expression in E. coli” value was “not soluble”. For “SKLNERSVAHYALSDSPADHMGFLRTWGGPGTPPTPSGTGRRCWFVLKGNLLFSFESREGRAPLSLVVLEGCTVELAEAPVPEEFAFAICFDAPGVRPHLLAAEGPAAQEAWVKVLSRASFGYMRLVVRELESQLQDARQSLALQRRSSWKSVASRCKPQAPNHRAAGLENGHCLSKDSSPVGLVEEAGSRSAGWGLAEWELQGPASLLLGKGQSPVSPETSCFSTLHDWYGQEIVELRQCWQKRAQGSHSKCEEQDRP”, the “soluble on expression in E. coli” value was “soluble”. With “SKLVYRNLARNGPGSVKLVPEEEDDLWHAYNLIVPGDTLQSVTVRKVLREMASGGRDAERVRLKLEIVVESVDYDKEGSVLRVRGKNITENDHVKIGQFHTVELELKRQFTLTKELWDWLALDTIQQACDPTASADLAVILMQEGLAHLFLIGRSITVTRARIETSIPRKHGPAIAGYESALKKFFEHVLQVNEKCFLKEMIILMKPIWTDALLNLPTGFPEAY” the “soluble on expression in E. coli” value was “soluble”. For “SKNPHLPQPVRVTVGPNAPPVFGMFYPDRYMVGVDCILVDGMFVSRSRFEKLGGSLMAKWYRSIRVVDTAEPLGAWLERHNLPVFTGKARQRRQRGAPSTN”, the “soluble on expression in E. coli” value was “soluble”. In the case of “SKYVDRVIAEVEKKYADEPEFVQTVEEVLSSLGPVVDAHPEYEEVALLERMVIPERVIEFRVPWEDDNGKVHVNTGYRVQFNGAIGPYLGGLRFAPSVNLSIMKFLGFEQAFKDSLTTLPMGGAKGGSDFDPNGKSDREVMRFCQAFMTELYRHIGPDIDVPAGDLGVGARELGYMYGQYRKIVGGFYNGVLTGKARSFGGSLVRPEATGYGSVYYVEAVMKHENDTLVGKTVALAGFGNVAWGAAKKLAELGAKAVTLSGPDGYIYDPEGITTEEKINYMLEMRASGRNKVQDYADKFGVQFFPGEKPWGQKVDIIMPCATQNDVDLEQAKKIVANNVKYYIEVANMPTTNEALRFLMQQPNMVVAPSKAVNAGGVLVSGFEMSQNSERLSWTAEEVDSKLHQVMTDIHDGSAAAAERYGLGYNLVAGANIVGFQKIADAMMAQGIAW”, the “soluble on expression in E. coli” value is reported as “soluble”. With “SLCDKIFHNLSGKTLVATPYVITKGIYHKSLIYMLSHTEEGAIGLIFNRLVNHVDLKSFFKIKEDKITSQVIVPIYLGGPIEHEKGFFLHSRDYNKNLLLDFHNDLAVSSNLEISEDIAFGQGPKNSLFIVGYTAWKPGQLEEELEKNLWLVMDCNKEFIFADNPENKWHNALKHLGIDEMYFSSQIGNA” the “soluble on expression in E. coli” value was “soluble”. For “SLEKRQGLEDIGRVRATIKNEFPSLTLLTQDWGDWDETYKFSQNHNQEYLEANVPSLTTLSKSTKIDFLALYDLNAIELFKGAYHPDMEREVNLHSTPSIRSLVASVLKTNREKKGLFKTDEGLLALVARPILTSEGRGPSHGVIIMGRFLSQLLLSSVGKKCPIPFELFIQDDKRLSAPEKALFAKLSATAPRFTPVFHQGFVYQTYPDIE”, the “soluble on expression in E. coli” value was “not soluble”. With “SLENYWVDERTLVVSGDFFGVSTGLLGGWKRVRHAFNHTVSEEFHSMEPAEYLRKVARGYGLKSYFGLLTSVPIEKLSVKGCGEVTVFATAGVMNPNERVGTINIIAVFECRMSRAAMLNAIITATEAKTKALLEEGHNFTGTNTDAVVVLCTQKGGYHRYCGPASEVGQKLWRCAGEAVKDSLARW” the “soluble on expression in E. coli” value was “soluble”. In the case of “SLERLIRGMQYHYQWLTPFDAKRTTVVCLHGFTGTLATFAAVFPSQTPYNVLGIDLPGHGATASLVAPERYTMKQVCHDIAELTESLNLPCFCLLGYSMGARTALGFALHYPQKVQHLLLESGSPGLATAAERQARICQDHRLAERLLEEPLVDFIDFWQELPLFQTQKALSVAQQMAIRQERLSQSAFGLVSSLWYMGTGAQESYWERLAELQPIPTDLLVGGEDQKFIGIAKKMQARQPLLRLTIFPEAGHCIHLEQPTIFYEKVTALLEGAI”, the “soluble on expression in E. coli” value is reported as “soluble”. In the case of “SLGWQISRFNRAFDTLCQQGRVGVGRSSGRFKPRVVVAIALDDQQRIVDTLFMKGLTVFARPQKIPAITGMHAGDLQPDVIFPHDPLSQNALSLALKLKRG”, the “soluble on expression in E. coli” value is reported as “soluble”. With “SLHRILLVDDEKDVGKIVSRLLAGDNYEIEQVTTGKEAMKRVLEESLPDIILLDINLPDIDGMDMLRDMKDAVRGTPIVMMTAYGSIETAVRSIKMGAMDFVQKPFNHYDFKRFINGVISARNIAGNDHCGIVGSSPQMKKVFRLVDKFALSDITILLQGESGTGKELFARAIHQKSKRRSGPFVPLDCAALSETLIESELFGHEKGAFTGATERKIGKFERAHGGTLFIDEVENLSSSNQAKLLRAVEEKQIERVGGTKAIKVDVRIVAASNIPLTEIINNGVFRKDLFYRFSQMTIAIPSLRDRVKDVDVLIRHFLAAYSEEFGNAANISEEALLLLNAYPWPGNVRELENVVKSAVILADGDILAKHLPEYIRKGSEG” the “soluble on expression in E. coli” value was “soluble”. In the case of “SLKALWIYVGPVEDYGWTRAHHDGHMKARSKLGWLESSYIETVSEDKAYDVIKAQLDAEGYDAVFATSYGYMDALKRLATEYPDVKFYHCSGPWEEFRDLPNVSTYFAEFYQLYYLNGLAAAGATETCNLGYIPAFLIPEVVRHINAYVIGAVEGAKVLGKCGDGRNIRVLVTPPLNSWFAPDKARDAARLLVETYDVDVIAYTEDTTAVLETAESYWDQGVKVYSFSHYTDMYAYFKSQGKTLRSHLTGQIS”, the “soluble on expression in E. coli” value is reported as “soluble”. With “SLKIKQIVKPGLAVLAAGVLSACATKSNVKADGTTDNPVFPKPYSVTLDNNRGTFPTYDELDLMRPGLTKDDIYKILGRPHYDEGMYGVREWDYLFHFHTPGVGIDPENTSGVEGITTCQYKIIFDKDKFARSFYWNPVFPKDAACPPPAPKAEPQVIIREIVPAKPKRIRQ” the “soluble on expression in E. coli” value was “soluble”. In the case of “SLKITDDCINCDVCEPECPNGAISQGEEIYVIDPNLCTECVGHYDEPQCQQVCPVDCIPLDDANVESKDQLMEKYRKITGKA”, the “soluble on expression in E. coli” value is reported as “soluble”. With “SLKRIDWNIQYLSLPPVIKHCKKCGKKTEFICSGMFRINAQRKYLDVWLIYKCSNCNSTWNMTIYTRVKPKSIEPKLLEAFHNNDKELAERYAVNLELIRKNGVELGYTKYKIIGEDINFRIPVELHIKSTYPSQLKVAALIREKLNLSQSSFESLITKGLIRGDTEINLKKCRLRTEVIVIIDSLDWSEVAFALAL” the “soluble on expression in E. coli” value was “soluble”. With “SLLASTRHIARGDTGNVSVRIRRVTTTRAGGVSAPPFDTFNLGDHVGDDPAAVAANRARLAAAIGLPGNRVVWMNQVHGDRVELVDQPRNTALDDTDGLVTATPRLALAVVTADCVPVLMADARAGIAAAVHAGRAGAQRGVVVRALEVMLSLGAQVRDISALLGPAVSGRNYEVPAAMADEVEAALPGSRTTTAAGTPGVDLRAGIACQLRDLGVESIDVDPRCTVADPTLFSHRRDAPTGRFASLVWME” the “soluble on expression in E. coli” value was “not soluble”. With “SLLDTLLINIGQLLTMDQEDGLLRREAMNTLPVIENGAVGIENGVITFVGTAEEAKGLQAKEVIDCGGKMVSPGLVDPHTHLVFGGSRENEIALKLQGVPYLEILEQGGGILSTVNATKQSSKEELVQKAKFHLDRMLSFGVTTVEAKSGYGLDDETEWKQLEATAQLQKEHPIDLVSTFLGAHAVPKEYKGRSKEFLQWMLDLLPEMKEKQLAEFVDIFCETGVFSVEESKEFLLKAKELGFDVKIHADEIDPLGGAEAAAEIGAASADHLVGASDKGIEMLANSNTVATLLPGTTFYLNKESFARGRKMIDEGVAVALATDFNPGSCPTENIQLIMSIAMLKLKMTPEEVWNAVTVNSSYAINRGDVAGKIRVGRKADLVLWDAYNYAYVPYHYGVSHVNTVWKNGNIAYTRGEQSWSTATI” the “soluble on expression in E. coli” value was “soluble”.
